What was measured:
Assay in all cases: HPLC, steroid hydroxylation rate, hyperbolic fit
Assay type in all cases: biochemical, Bacillus subtilis
Details in all cases: 1 mM NADPH, redox partners Fdr_0978 (4 μM) and Fdx_1499 (20 μM), 2 mM MgCl2, pH 8.0, 30°C
[1] = system: T1, C[C@]12CC[C@H]3[C@@H](CCC4=CC(=O)CC[C@@H]43)[C@@H]1CC[C@@H]2O
T1 construct: assayed with separate redox partners Fdr_0978/Fdx_1499
From the text: (§1) HPLC, steroid hydroxylation rate, hyperbolic fit on CYP109B1

[2] = system: T2, [H][C@@]12CC[C@H](O)[C@@]1(C)CCC1=C3CCC(=O)C=C3CC[C@]12[H]
T2 construct: assayed with separate redox partners Fdr_0978/Fdx_1499
From the text: as §1

[3] = system: C[C@]12CC[C@H]3[C@@H](CCC4=CC(=O)C=C[C@@]43C)[C@@H]1CC[C@@H]2O
From the text: as §1

[4] = system: C[C@]12CC[C@H]3[C@@H](CCC4=CC(=O)CC[C@@]43C)[C@@H]1CC[C@@H]2O
From the text: as §1

CYP109B1 (Bacillus subtilis subsp. subtilis str. 168)
Km [1]: 136.3 ± 18.4 µM | kcat [1]: 0.0717 ± 0.00167 s⁻¹ | kcat/Km [1]: 517 M⁻¹ s⁻¹ | Km [2]: 163.1 ± 38.4 µM | kcat [2]: 0.197 ± 0.0117 s⁻¹ | kcat/Km [2]: 1200 M⁻¹ s⁻¹ | Km [3]: 193.1 ± 38.2 µM | kcat [3]: 0.0583 ± 0.00333 s⁻¹ | kcat/Km [3]: 300 M⁻¹ s⁻¹ | Km [4]: 83.7 ± 20.4 µM | kcat [4]: 0.0783 ± 0.005 s⁻¹ | kcat/Km [4]: 933 M⁻¹ s⁻¹

From publication PMC7930613, “Exploring the Potential of Cytochrome P450 CYP109B1 Catalyzed Regio—and Stereoselective Steroid Hydroxylation” (Frontiers in Chemistry, 2021)
